No end group written: not given here.
Assays:
Human fibrinogen [1] = target: T1, Human fibrinogen (Homo sapiens, UniProt P02671+P02675+P02679); experiment: Fibrinogen binding to peptide resin columns (affinity chromatography, UV 280 nm)
T1 construct: purchased Enzymes Research Labs (South Bend, Ind.)
T1 sequence (P02671 20-629 limits assumed): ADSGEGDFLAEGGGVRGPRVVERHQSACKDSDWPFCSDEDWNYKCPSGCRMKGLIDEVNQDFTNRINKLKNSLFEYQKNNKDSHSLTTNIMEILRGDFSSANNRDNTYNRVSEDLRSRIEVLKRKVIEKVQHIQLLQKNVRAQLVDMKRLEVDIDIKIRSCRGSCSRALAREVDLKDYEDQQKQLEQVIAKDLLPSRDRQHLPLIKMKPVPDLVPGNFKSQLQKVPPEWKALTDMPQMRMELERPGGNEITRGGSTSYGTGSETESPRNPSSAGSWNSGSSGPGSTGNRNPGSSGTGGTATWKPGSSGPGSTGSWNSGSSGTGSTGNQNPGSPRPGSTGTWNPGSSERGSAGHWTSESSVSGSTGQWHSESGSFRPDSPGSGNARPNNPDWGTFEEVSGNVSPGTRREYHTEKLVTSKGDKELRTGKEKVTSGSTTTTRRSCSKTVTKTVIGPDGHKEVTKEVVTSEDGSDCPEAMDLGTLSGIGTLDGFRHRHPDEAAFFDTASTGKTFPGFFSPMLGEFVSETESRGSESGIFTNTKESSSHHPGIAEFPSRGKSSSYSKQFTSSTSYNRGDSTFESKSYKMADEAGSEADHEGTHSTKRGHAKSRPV
T1 sequence (P02675 31-491): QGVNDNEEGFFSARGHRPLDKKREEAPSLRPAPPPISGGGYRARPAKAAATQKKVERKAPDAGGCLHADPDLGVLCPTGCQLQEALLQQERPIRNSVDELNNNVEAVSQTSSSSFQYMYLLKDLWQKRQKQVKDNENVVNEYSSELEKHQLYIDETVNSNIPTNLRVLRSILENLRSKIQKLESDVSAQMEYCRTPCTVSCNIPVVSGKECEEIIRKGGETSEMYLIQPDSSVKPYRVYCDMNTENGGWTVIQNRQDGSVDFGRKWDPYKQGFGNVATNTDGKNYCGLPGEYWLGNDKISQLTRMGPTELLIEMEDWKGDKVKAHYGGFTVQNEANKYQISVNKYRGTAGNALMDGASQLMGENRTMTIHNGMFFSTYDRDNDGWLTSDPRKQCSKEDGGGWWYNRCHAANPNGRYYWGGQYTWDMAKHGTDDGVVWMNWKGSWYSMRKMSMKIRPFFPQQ
T1 sequence (P02679 27-437 isoform P02679-2 limits assumed): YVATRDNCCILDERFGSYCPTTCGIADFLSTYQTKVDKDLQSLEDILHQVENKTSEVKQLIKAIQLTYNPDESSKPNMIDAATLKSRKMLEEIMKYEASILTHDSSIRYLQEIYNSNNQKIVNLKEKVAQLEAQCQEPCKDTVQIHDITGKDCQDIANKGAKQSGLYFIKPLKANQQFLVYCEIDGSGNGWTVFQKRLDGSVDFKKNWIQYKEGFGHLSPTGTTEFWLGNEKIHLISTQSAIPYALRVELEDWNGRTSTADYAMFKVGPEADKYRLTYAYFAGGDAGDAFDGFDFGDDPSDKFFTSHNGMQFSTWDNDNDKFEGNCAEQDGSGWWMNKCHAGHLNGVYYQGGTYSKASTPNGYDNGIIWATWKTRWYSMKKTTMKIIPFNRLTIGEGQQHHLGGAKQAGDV
Procedure: (§1) Dried peptide resins were packed into 0.6 ml columns (0.4 cm×5 cm, Thomson, Va.), and evaluated on a Waters HPLC-system (Milford, Mass.) with a UV-detector (Knauer, Germany) monitoring at 280 nm. The columns were conditioned with over 5 volumes of 20% ethanol in water, followed by a minimum of 5 volumes of water.
(§2) Human fibrinogen was purchased from Enzymes Research Labs (South Bend, Ind.), and 25% human serum albumin (HSA) was a donation from the Bayer Corporation (Clayton, N.C.). The following buffers were used for both dissolving fibrinogen and diluting HSA.
Peptide resin columns were equilibrated in Buffer A. The following program was used for each column run: From time 0-15 minutes, Buffer A was applied. At time 10 minutes, a 50 μl sample was injected onto the column with a 50 μl sample loop. From time 15-20 minutes, bound protein was step-eluted by switching to 0.4M acetic acid (Fisher), pH 2.6. The column was then re-equilibrated with Buffer A from time 20-30 minutes. A flow rate of 1 ml/min was used. For each column two injections were made: #1 Buffer A (blank); #2 10 μg/μl Fibrinogen dissolved in Buffer A.
(§3) This column was equilibrated in Buffer A, and the following program was used for each column run: From time 0-15 minutes, Buffer A was applied. At time 5 minutes, a 50 μl sample dissolved in buffer A was injected onto the column with a 100 μl sample loop. From time 15-20 minutes, bound protein was step-eluted by switching to 0.1M acetic acid, pH 2.9, followed by 0.4M acetic acid, pH 2.6, from time 20-21 minutes. The column was then re-equilibrated with Buffer A from time 21-30 minutes. During the column run, the flow rate was 1 ml/min from time 0-21 minutes; it was increased to 2 ml/min from time 21-30 minutes.
(§4) In total, seven injections were made: #1 Buffer A (blank); #2 100 μg/μl HSA; #3 20 μg/μl Fibrinogen; #4 Mixture of 5 μg/μl Fibrinogen and 90 μg/μl HSA; #5 Mixture of 10 μg/μl Fibrinogen and 75 μg/μl HSA; #6 Mixture of 20 μg/μl Fibrinogen and 50 μg/μl HSA; #7 20 μg/μl Fibrinogen.
(§5) After equilibrating in Buffer B, the following program was used for each column run: From time 0-15 minutes, Buffer B was applied. At time 5 minutes, 50 μL sample dissolved in Buffer B was injected onto the column with a 100 μl sample loop. From time 15-20 minutes, bound protein was step-eluted by switching to 20 mM acetic acid, pH 3.2, followed by 0.4M acetic acid, pH 2.6, from time 20-23 minutes. The column was then re-equilibrated with Buffer B from time 23-30 minutes. During the column run, the flow rate was 1 ml/min from time 0-23 minutes, then it was increased to 2 ml/min from time 23-30 minutes. In total, for each column seven injections were made: #1 Buffer B (blank); #2 for WQEHYN-column: 50 μg/μl HSA, and for YENYGY-column: 100 μg/μl HSA; #3 20 μg/μl Fibrinogen; #4 Mixture of 5 μg/μl Fibrinogen and […] HSA; #5 Mixture of 10 μg/μl Fibrinogen and 50 μg/μl HSA; #6 Mixture of 20 μg/μl Fibrinogen and 50 μg/μl HSA; #7 20 μg/μl Fibrinogen.

Human fibrinogen [2] = target: T1, Human fibrinogen; experiment: Fibrinogen recovery from peptide columns (acetic acid elution, A280 of eluted peak); assay type: binding
Procedure: as §1, §2, §3, §4, §5
In parts (b) and (c), eluted protein was collected in 1.25 ml fractions, some in which pH was measured. The fractions were not re-adjusted to a neutral pH. The purity of the eluted protein was assessed by SDS-PAGE (Biorad) of non-reduced as well as of reduced samples. Broad Range Standards (Biorad) were used as molecular weight standards, and dithiothreitol (Sigma) was used as the reducing agent. Eluted protein was centrifuged and supernatant collected for determination of fibrinogen concentration by A280.

[3] = target: T2, human serum albumin (HSA) (Homo sapiens, UniProt P02768); experiment: HSA binding to peptide resin columns (affinity chromatography); settings: conditions of the experimental section, FIGS. 3-5
T2 construct: purchased Bayer Corporation (Clayton, N.C.), donated rather than bought
Procedure: as §1, §2
This column was equilibrated in Buffer A, and the following program was used for each column run: From time 0-15 minutes, Buffer A was applied. At time 5 minutes, a 50 μl sample dissolved in buffer A was injected onto the column with a 100 μl sample loop. From time 15-20 minutes, bound protein was step-eluted by switching to 0.1M acetic acid, pH 2.9, followed by 0.4M acetic acid, pH 2.6, from time 20-21 minutes. The column was then re-equilibrated with Buffer A from time 21-30 minutes. During the column run, the flow rate was 1 ml/min from time 0-21 minutes; it was increased to 2 ml/min from time 21-30 minutes. […]

[4] = conditions of the experimental section, FIGS. 3-5
[5] = Column run #3, injected 1000 μg fibrinogen (20 μg/μl fibrinogen alone)
[6] = Column run #4, injected 250 μg fibrinogen (5 μg/μl, mixture with HSA)
[7] = Column run #5, injected 500 μg fibrinogen (10 μg/μl, mixture with HSA)
[8] = Column run #6, injected 1000 μg fibrinogen (20 μg/μl, mixture with 50 μg/μl HSA)
[9] = Column run #7, injected 1000 μg fibrinogen (20 μg/μl fibrinogen alone)

Substance: Trp-Gln-Glu-His-Tyr-Asn (WQEHYN; not fully specified (C-terminus); printed as Trp-Gln-Glu-His-Tyr-Asn) [hexapeptide ligand synthesized onto TOTDA-modified Toyopearl resin]
- fibrinogen binding to peptide column (Human fibrinogen [1]; [4]): bound fibrinogen
- Fibrinogen recovery, column peak (Human fibrinogen [2]; [5]): 330 µg
- Fibrinogen recovery, column peak (Human fibrinogen [2]; [6]): 70 µg
- Fibrinogen recovery, column peak (Human fibrinogen [2]; [7]): 140 µg
- Fibrinogen recovery, column peak (Human fibrinogen [2]; [8]): 220 µg
- Fibrinogen recovery, column peak (Human fibrinogen [2]; [9]): 240 µg
- HSA binding to peptide column [3]: none of these peptides bound HSA

Substance: Trp-Gln-Glu-Thr-Tyr-Gln (WQETYQ; not fully specified (C-terminus); printed as Trp-Gln-Glu-Thr-Tyr-Gln) [hexapeptide ligand synthesized onto TOTDA-modified Toyopearl resin]
- fibrinogen binding to peptide column (Human fibrinogen [1]; [4]): bound fibrinogen
- Fibrinogen recovery, column peak (Human fibrinogen [2]; [5]): 360 µg
- Fibrinogen recovery, column peak (Human fibrinogen [2]; [6]): 100 µg
- Fibrinogen recovery, column peak (Human fibrinogen [2]; [7]): 150 µg
- Fibrinogen recovery, column peak (Human fibrinogen [2]; [8]): 310 µg
- Fibrinogen recovery, column peak (Human fibrinogen [2]; [9]): 340 µg
- HSA binding to peptide column [3]: none of these peptides bound HSA

Substance: Tyr-Glu-Asn-Tyr-Gly-Tyr (YENYGY; not fully specified (C-terminus); printed as Tyr-Glu-Asn-Tyr-Gly-Tyr) [hexapeptide ligand synthesized onto TOTDA-modified Toyopearl resin]
- fibrinogen binding to peptide column (Human fibrinogen [1]; [4]): bound fibrinogen
- Fibrinogen recovery, column peak (Human fibrinogen [2]; [5]): 530 µg
- Fibrinogen recovery, column peak (Human fibrinogen [2]; [6]): 150 µg
- Fibrinogen recovery, column peak (Human fibrinogen [2]; [7]): 280 µg
- Fibrinogen recovery, column peak (Human fibrinogen [2]; [8]): 520 µg
- Fibrinogen recovery, column peak (Human fibrinogen [2]; [9]): 530 µg

Substance: W-E-Q-(S)-N-P (WEQSNP)
- fibrinogen binding to peptide column (Human fibrinogen [1]; Buffer A (preliminary test / later tests)): did not bind fibrinogen
- fibrinogen binding to peptide column (Human fibrinogen [1]; Buffer B): did not bind fibrinogen

Source: US5783663A, “Peptide ligands for affinity purification of fibrinogen” (Bayer Corporation, priority 1998, dated 1998)
